According to patent US20220073608A1 (JIANGSU HUAIYU PHARMACEUTICAL, published 2022):
Residue numbers refer to the chain shown, from its start.

T1: human SEMA4D, full length, on CHO-K1 cells (CHO-K1 hSEMA4D) (human, UniProt Q92854 22-862)
T1 construct: whole, on cells; also called human SEMA4D recombinant cells
T1 sequence (looked up): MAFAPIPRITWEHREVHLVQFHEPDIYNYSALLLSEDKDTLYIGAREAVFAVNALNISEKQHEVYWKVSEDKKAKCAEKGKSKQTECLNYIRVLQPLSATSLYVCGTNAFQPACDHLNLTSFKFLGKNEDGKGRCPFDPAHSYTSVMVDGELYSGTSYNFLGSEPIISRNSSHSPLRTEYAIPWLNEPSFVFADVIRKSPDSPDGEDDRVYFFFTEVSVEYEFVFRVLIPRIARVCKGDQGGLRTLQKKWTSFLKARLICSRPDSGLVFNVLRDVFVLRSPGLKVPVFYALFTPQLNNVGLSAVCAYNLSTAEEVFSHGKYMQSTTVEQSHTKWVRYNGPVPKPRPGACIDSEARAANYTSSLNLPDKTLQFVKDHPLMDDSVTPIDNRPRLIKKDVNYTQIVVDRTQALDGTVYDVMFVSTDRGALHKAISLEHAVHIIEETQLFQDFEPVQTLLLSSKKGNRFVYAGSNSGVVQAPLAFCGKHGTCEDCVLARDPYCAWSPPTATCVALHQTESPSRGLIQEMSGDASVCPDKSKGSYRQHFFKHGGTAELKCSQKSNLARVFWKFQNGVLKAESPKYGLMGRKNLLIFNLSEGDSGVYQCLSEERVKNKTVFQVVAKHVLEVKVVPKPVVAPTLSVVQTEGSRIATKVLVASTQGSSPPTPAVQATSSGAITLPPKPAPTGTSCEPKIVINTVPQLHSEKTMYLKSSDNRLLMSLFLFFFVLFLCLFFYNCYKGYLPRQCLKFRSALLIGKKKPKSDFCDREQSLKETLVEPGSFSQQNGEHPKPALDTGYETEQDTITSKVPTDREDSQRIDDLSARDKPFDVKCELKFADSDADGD

T2: mouse SEMA4D, full length, on CHO-K1 cells (CHO-K1 mSEMA4D) (mouse, UniProt O09126 24-861)
T2 construct: whole, on cells; also called murine SEMA4D recombinant cells
T2 sequence (looked up): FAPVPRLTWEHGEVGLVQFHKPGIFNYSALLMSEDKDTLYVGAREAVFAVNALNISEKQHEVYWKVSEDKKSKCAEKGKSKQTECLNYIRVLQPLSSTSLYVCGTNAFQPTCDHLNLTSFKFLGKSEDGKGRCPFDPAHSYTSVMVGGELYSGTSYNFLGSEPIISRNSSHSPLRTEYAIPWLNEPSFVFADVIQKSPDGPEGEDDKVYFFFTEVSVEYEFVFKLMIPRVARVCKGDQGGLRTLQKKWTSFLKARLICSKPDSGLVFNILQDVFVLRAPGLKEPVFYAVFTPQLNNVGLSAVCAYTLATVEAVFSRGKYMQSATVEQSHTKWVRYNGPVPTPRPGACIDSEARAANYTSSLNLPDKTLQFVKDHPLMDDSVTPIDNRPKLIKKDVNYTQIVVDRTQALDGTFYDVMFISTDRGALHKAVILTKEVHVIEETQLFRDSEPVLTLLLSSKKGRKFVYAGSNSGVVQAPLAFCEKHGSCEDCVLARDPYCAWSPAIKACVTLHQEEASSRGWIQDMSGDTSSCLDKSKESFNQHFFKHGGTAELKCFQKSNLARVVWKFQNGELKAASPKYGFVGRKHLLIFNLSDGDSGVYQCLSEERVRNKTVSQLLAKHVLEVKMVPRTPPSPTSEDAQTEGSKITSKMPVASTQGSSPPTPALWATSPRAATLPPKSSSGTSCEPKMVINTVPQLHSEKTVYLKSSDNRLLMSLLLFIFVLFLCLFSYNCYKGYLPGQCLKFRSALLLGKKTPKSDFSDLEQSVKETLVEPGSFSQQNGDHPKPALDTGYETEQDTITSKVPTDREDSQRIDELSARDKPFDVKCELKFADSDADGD

B1: 42B7G2 (antibody, V domains shown)
VH: QVQLQQSGAELARPGASVKLSCKASGYTFTDYGISWVKQRTGQGLEWIGEIYLRNDNSYYNEKFKGKATLTADKSSNTAYMELRSLTSEDSAVYFCARWGDHGNNYEDAMDYWGQGTSVTVSS
VL: DIVLTQSPASLAMSLGKRATISCRASESVSIIGSNLIHWYQQKPGQPPKLLIYHASNLETGVPARFSGSGSRTDFTLTIDPVEEDDVAIYYCLQSRKVPYTFGGGTKLEIK
notes: Mouse monoclonal antibody purified from hybridoma supernatant on protein A
B2: 37F11F9 (antibody, V domains shown)
VH: EVQLQQSGPVLVKPGASVKMSCKASGYTFTDYYMNWVKQSHGKSLEWIGLINPYSGGSTFNQKFKAKATLTVDKSSSSAYMDLNSLTSEDSAVYYCARVGDGYYGVTHGMDYWGQGTSVTVSS
VL: DIVMTPSQKFMSTTVGDRVSITCKASQNVGTAVAWYQQKPGQSPTILIYSASNRYTGVPDRFTGSGSGTDFTLTISNMKSEDLADYFCQQYYIYPFTFAAGTKLELK
notes: as for B1
B3: 37C4F7 (antibody, V domains shown)
VH: EFQLQQSGPEVVKPGASVKISCKASGYSFTDYNMNWMKQSKGKSLEWIGVINPNYGTTTYNQNFKGKATLTVDQSSSTAYMQLNSLTSEDSAVYYCARDMYYVYAYYTMDYWGQGTSVTVSS
VL: DVVMTQTPLSLPVSLGDQASISCRSSQSLVHSNGHTYLHWYLQRPGQSPTLLIYKVSNRFSGVPDRFSGSGSGTDFTLKISRVEAEDLGVYFCSQGTHVPWTFGGGTKLEIK
notes: as for B1
B4: 38H2E3 (antibody, V domains shown)
VH: B3 VH with N52S, N54D, G66D, R98K, Q114H
VL: B3 VL with F67V, W101R
notes: as for B1
B5: 32C8F10 (antibody, V domains shown)
VH: EVQLQQSGAELVRPGASVKLSCTASGFNIKDEYIHWVKQRPEQGLEWIGWIDPANGHTEYASRFQAKATITADTSSNTAYLQLSSLTSEDTAVYYCTTGDYDGFAYWGQGTLVTVST
VL: QIVLTQSPAIMSASPGEKVTISCSARSSVSYMYWYQQKPGSSPKPWIYRTSNLASGVPARFSGSGSGTSYSLTISSMEAEDAATYYCQHYHTYPYTFGGGTKLEIK
notes: as for B1
B6: 31G10C5 (antibody, V domains shown)
VH: B5 VH with E32D, T58I, R63N, A105T
VL: B5 VL
notes: as for B1
B7: 31C11G2 (antibody, V domains shown)
VH: B5 VH with A105V
VL: B5 VL with S22F
notes: as for B1

molecular target: T1, human SEMA4D, full length, on CHO-K1 …; experiment: FACS, CHO-K1 hSEMA4D cells; Ab 66.7 nM
Procedure: The medium was aspirated, the cells were washed once with PBS buffer (purchased from Invitrogen), and then treated with cell dissociation fluid (TrypLE™ Express Enzyme, purchased from Life technology), and the cells were collected. After the cells counted, the cells were washed once with PBS phosphate buffer, and diluted to 3×10⁶ cells per milliliter, and added to the 96-well FACS reaction plate as 100 μL per well. 2% (w/w) fetal calf serum was added to PBS phosphate buffer as FACS buffer, with which the cells were washed once by centrifugation at 2000 rpm 4° C. 100 μL of diluted and purified leading antibodies was added to each well and the plate was incubated for 1 hour on ice. […] Cells were washed 2 times by centrifugation with FACS buffer. The cells were suspended with 200 μL of FACS buffer, and FACS (FACS Verse, purchased from BD) was used to detect and analyze the results.

MFI | Binder
4120 | B1
4110 | B2
4740 | B3
5470 | B4
8760 | B5
7410 | B6
6750 | B7

molecular target: T2, mouse SEMA4D, full length, on CHO-K1 …; experiment: FACS, CHO-K1 mSEMA4D cells; Ab 0.0213 nM
Procedure: (§1) After the cells were counted, they were diluted with PBS to 2×10⁶ cells per milliliter. After washing, 100 μL of diluted and purified leading antibodies was added to each well and the plate was incubated for 1 hour on ice. […] Cells were washed 2 times by centrifugation with FACS buffer. The cells were suspended with 200 μL of FACS buffer, FACS (FACS Verse, purchased from BD) was used to detect and analyze the results.

MFI | Binder
31.6 | B1
30.5 | B2
30.8 | B3
30.1 | B4
29.5 | B5
29.6 | B6
30.8 | B7

molecular target: T3, monkey SEMA4D, full length, on CHO-K1 cells (CHO-K1 cSEMA4D) (monkey); experiment: FACS, CHO-K1 cSEMA4D cells; Ab 13.3 nM
T3 construct: whole, on cells; also called monkey SEMA4D recombinant cells
Procedure: as §1

MFI | Binder
2590 | B1
2480 | B2
2790 | B3
2800 | B4
5590 | B5
4580 | B6
4390 | B7
